# Laboratory results reported in paper doi:10.1101/2023.12.01.569227 (bioRxiv, 2023).
# Positions count from the first letter of the chain named.
# B1: Seq8 (VHH)
# VHH: QVQLQESGGGLVQAGGSLRLSCAASGYGFSEYAMGWFRQAPGKEREFVATISWSGRSTYYTDSVKGRFTISRDNAKNTVYLQMNSLKPDDTAVYYCARAGWGVVVSEWDYDYDYWGQGTQVTVSS
# B2: Seq11 (VHH)
# VHH: B1 VHH with Y27R, G28K, S57L, R98G, W101Y
# B3: Seq5 (VHH)
# VHH: B1 VHH with Y27R, G28M, R56K, S57G, W101F, V104Y
# B4: Seq12 (VHH)
# VHH: B1 VHH with Y27R, G28T, R56G, T58K, R98A, W101L, V103T
# B5: Seq7 (VHH)
# VHH: B1 VHH with Y27L, G28K, Y32T, W101Y
# B6: Seq3 (VHH)
# VHH: B1 VHH with Y27R, G28M, Y32T, S57G, R98G, W101Y, V104Y
# B7: Seq2 (VHH)
# VHH: B1 VHH with Y27R, R56G, S57G, W101F, V104W
# B8: Seq6 (VHH)
# VHH: B1 VHH with Y27R, G28L, R98K
# B9: Seq4 (VHH)
# VHH: B1 VHH with Y27R, G28S, S57A, W101Y
# B10: Seq1 (VHH)
# VHH: B1 VHH with Y27R, G28T, Y32T, S57G, R98Y, W101Y
# Molecular target: SARS-CoV-2 RBD (SARS-CoV-2, Wuhan-Hu-1, UniProt P0DTC2, biotinylated with an EZ-Link NHS-PEG4 biotinylation kit)
# Test: BLI
Binder,fold improvement in binding affinity over VHH-72 [fold],binding result
B1,> 2,
B2,> 2,
B3,> 2,
B4,,binds
B5,> 2,
B6,> 2,
B7,> 2,
B8,> 2,
B9,> 2,
B10,> 2,
